Experimental data reported in publication PMC11021501, “Insights into the inhibition of protospacer integration via direct interaction between Cas2 and AcrVA5” (Nature Communications, 2024).
Changes are numbered by the printed parent chain. Numbers in names are those of the source.

T1: Treponema denticola Cas2 (Treponema denticola, UniProt Q73QW4 1-101)
T1 chain: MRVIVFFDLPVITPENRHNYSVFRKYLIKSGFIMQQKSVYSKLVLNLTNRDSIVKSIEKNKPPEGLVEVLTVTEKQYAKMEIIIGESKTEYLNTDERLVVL

B1: AcrVA5-L5A (natural protein)
chain: MKIEASGGYICYSIEEDEVTIDMVEVTTKRQGIGSQLIDMVKDVAREVGLPIGLYAYPQDDSISQEDLIEFYFSNDFEYDPDDVDGRLMRWS
B2: Treponema denticola Cas2 (natural protein)
chain: T1 chain
notes: Cas2 of Treponema denticola, type II-A CRISPR-Cas system; gene amplified and cloned into a modified pET32a vector with a precession enzyme cleavage site; A GST-tagged Cas2 (pGEX-6p-1, GST removed) was also made; Dimer by the crystal structure; also called Td-Cas2; WT-Cas2; not shown: Trx, N-terminal, cleaved
B3: Moraxella bovoculi AcrVA5 (natural protein)
chain: B1 chain with A5L
modifications: C-terminal His-tag left out; the vector-derived PLGS of 6IUF is dropped, so entity number = AcrVA5 number + 4

What was measured:
[1] = biological target: T1, Treponema denticola Cas2; assay: ITC
[2] = biological target: Treponema denticola Cas2 (Treponema denticola) (UniProt Q73QW4); assay: ITC; AcrVA5 (400 µM) injected into 50 µM Cas2 in the sample cell, 25 °C, 20 mM Tris pH 7.4, 200 mM NaCl; also AcrVA5 mutants and AcrVA5 peptides with Cas2
[3] = biological target: the molecule itself; assay: crystal structure; Cas2 with peptide at molar ratio 1:1.2, hanging drop, 15% PEG3350, 10% glycerol, 0.1 M Tris pH 6.4; 2.0 Å
[4] = biological target: B2; assay: ITC; AcrVA5 (400 µM) injected into 50 µM Cas2 in the sample cell, 25 °C, 20 mM Tris pH 7.4, 200 mM NaCl; also AcrVA5 mutants and AcrVA5 peptides with Cas2; settings: both partners purified

**Q.** How did the Kd [1] turn out when B1 was run?
**A.** The Kd was 1060 nM.

**Q.** What about the Kd [2] of the same binder?
**A.** The Kd was 1300 nM.

**Q.** For B2, which “stoichiometry N” value [3] is on record?
**A.** The value was 2.

**Q.** How did the Ka [4] turn out when B3 was run?
**A.** The Ka was 939000 M⁻¹.

**Q.** And the Kd [4]?
**A.** The Kd was 1100 nM.

**Q.** And the dH [4]?
**A.** The dH was 4.23 ± 0.165 kcal/mol.

**Q.** And the “stoichiometry N” value [4]?
**A.** The value was 0.596 ± 0.0158.
